Reference: patent US20200109196A1 (MOGAM INSTITUTE FOR BIOMEDICAL RESEARCH, published 2020)
Changes are numbered by the printed parent chain.

T1: CEACAM8 expressed on the surface of HEK293 cells (human, UniProt P31997 35-320)
T1 construct: whole, on cells
T1 sequence (looked up): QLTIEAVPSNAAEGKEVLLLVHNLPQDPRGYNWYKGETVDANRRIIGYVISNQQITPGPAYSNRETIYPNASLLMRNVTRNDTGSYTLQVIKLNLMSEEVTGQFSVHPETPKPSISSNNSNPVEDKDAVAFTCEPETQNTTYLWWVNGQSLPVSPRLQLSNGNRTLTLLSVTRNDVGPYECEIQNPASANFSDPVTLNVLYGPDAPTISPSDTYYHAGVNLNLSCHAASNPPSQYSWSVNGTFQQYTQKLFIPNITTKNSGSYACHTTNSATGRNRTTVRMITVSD

T2: CEACAM5 expressed on the surface of HEK293 cells (human, UniProt P06731 35-685)
T2 construct: whole, on cells; GFP-tagged clone; also called CEACAM5-GFP
T2 sequence (looked up): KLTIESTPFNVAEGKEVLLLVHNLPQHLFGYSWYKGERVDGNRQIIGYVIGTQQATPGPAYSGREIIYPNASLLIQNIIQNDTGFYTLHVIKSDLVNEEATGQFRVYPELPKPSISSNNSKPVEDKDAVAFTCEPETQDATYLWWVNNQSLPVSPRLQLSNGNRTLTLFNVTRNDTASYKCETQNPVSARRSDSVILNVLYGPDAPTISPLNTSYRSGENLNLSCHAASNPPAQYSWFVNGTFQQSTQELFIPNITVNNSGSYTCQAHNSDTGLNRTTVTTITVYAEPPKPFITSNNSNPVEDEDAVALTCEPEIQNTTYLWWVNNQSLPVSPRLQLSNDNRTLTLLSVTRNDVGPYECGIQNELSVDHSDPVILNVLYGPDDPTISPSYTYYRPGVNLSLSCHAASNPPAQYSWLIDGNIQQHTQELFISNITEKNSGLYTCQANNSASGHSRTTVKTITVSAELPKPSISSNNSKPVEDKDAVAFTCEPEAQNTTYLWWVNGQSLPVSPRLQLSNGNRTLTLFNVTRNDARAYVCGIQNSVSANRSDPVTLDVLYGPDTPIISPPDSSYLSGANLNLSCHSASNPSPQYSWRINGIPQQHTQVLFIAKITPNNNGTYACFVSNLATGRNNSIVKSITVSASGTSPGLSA

T3: CEACAM6 expressed on the surface of HEK293 cells (human, UniProt P40199 35-320)
T3 construct: whole, on cells; GFP-tagged clone; also called CEACAM6-GFP
T3 sequence (looked up): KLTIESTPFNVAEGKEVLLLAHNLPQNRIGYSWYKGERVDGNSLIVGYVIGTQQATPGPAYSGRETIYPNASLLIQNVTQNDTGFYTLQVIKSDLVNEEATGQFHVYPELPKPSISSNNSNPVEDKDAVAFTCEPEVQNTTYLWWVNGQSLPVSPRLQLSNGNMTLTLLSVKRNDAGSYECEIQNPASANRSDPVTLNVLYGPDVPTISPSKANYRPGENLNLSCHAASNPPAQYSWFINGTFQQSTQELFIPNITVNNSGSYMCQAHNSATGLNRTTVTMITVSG

B1: 4R26 (antibody, human IgG4 S228P, lambda, V domains shown)
VH: EVQLLESGGGLVQPGGSLRLSCAASGFTFSNYAMSWVRQAPGKGLEWVSVISHGGGSIYYADSVKGRLTISRDNSKNTLYLQMNSLRAEDTAVYYCARDPTKGYAPTFDYWGQGTLVTVSS
VL: QSVLTQPPSASGTPGQRVTISCSGSSSNIGNNYVSWYQQLPGTAPKLLIYADSKRLSGVPDRFSGSKSGTSASLAISGLRSEDEADYYCGAWDGRLNGYVFGGGTKLTVLG
notes: also called C25-derived clone 4R26
B2: 4R9 (antibody, human IgG4 S228P, lambda, V domains shown)
VH: B1 VH
VL: B1 VL with K54R, L56P, G94L, R95S
notes: also called C25-derived clone 4R9
B3: 4R9_H4-n20 (antibody, human IgG4 S228P, lambda, V domains shown)
VH: B1 VH with T28N
VL: B1 VL with K54R, L56P, G94L, R95S
notes: also called C25-derived clone 4R9_H4-n20
B4: 4R9_H2-2 (antibody, human IgG4 S228P, lambda, V domains shown)
VH: B1 VH with T107L
VL: B1 VL with K54R, L56P, G94L, R95S
notes: also called C25-derived clone 4R9_H2-2

Biological target: T1, CEACAM8 expressed on the surface of …
Assay: flow cytometry on transfected HEK293 cells (GFP+ gate), PE goat anti-huIgG4 [b]
Description: (§1) HEK293 cells were added with 10 μg of each pEF1α-AcGFP-N1 vector (Clontech, Cat. No. 631973) as a control vector, CEACAM1, CEACAM3, CEACAM5, CEACAM6 and CEACAM8 plasmid vectors, followed by transfection under the condition of pulse voltage 1,100 V, pulse width 20 ms and pulse number 2. After 48 hours of transfection, GFP expression was confirmed by fluorescence microscopy. The cells were detached by treatment with 1 ml of TrypLE Express Solution (ThermoFisher Scientific; Cat. No. 12605010), resuspended in 9 ml of DMEM (Gibco, Cat. No. 11995-065) supplemented with 10% (v/v) FBS, and centrifuged at 1,200 rpm for 5 minutes, to remove the resulting supernatant.
(§2) After washing once with PBS, the cells were resuspended in a FACS buffer to obtain a concentration of 5×10⁵ cells/100 μl. Human Fc Block solution was added to the samples at 1 μl/sample, which were incubated at 4° C. for 10 minutes. The cells were treated with hulgG4 or one of the anti-CEACAM1 clones listed at 1 μg/5×10⁵ cells, which were incubated at 4° C. for 10 minutes. After washing with FACS buffer, the PE-labeled goat-anti-huIgG4 antibodies were diluted at a ratio of 1:200 in a FACS buffer, and added to the samples at 100 μl/sample, which were incubated at 4° C. for 30 minutes. The samples were filled with a FACS buffer up to 200 μl, and then centrifuged at 1,200 rpm for 5 minutes, to remove the resulting supernatant. The fixation buffer (300 μl) was added to resuspend the cells. The cells expressing GFP were selected in the FACS LSR-Fortessa device, and the expression of CEACAM members were evaluated respectively using the antibody specific to each CEACAM member (Table 3). Also, the binding of anti-CEACAM1 antibodies was evaluated by PE fluorescence channel and analyzed using the FlowJo software.

binding result	Binder
no binding	B1
no binding	B2
no binding	B3
no binding	B4

Biological target: T2, CEACAM5 expressed on the surface of …
Assay: as above
Description: as §1, §2

binding result	Binder
no binding	B1
no binding	B2
no binding	B3
no binding	B4

Biological target: T3, CEACAM6 expressed on the surface of …
Assay: as above
Description: as §1, §2

binding result	Binder
no binding	B1
no binding	B2
no binding	B3
no binding	B4
